Source: patent US20170334950

Key:
[1] = biological target: FLT3 Artificial Substrate (FAS) candidate sequence F
[2] = biological target: FLT3 Artificial Substrate (FAS) candidate sequence A
[3] = biological target: FLT3 Artificial Substrate (FAS) candidate sequence B
[4] = biological target: FLT3 Artificial Substrate (FAS) candidate sequence G
[5] = biological target: FLT3 Artificial Substrate (FAS) candidate sequence H
[6] = biological target: FLT3 Artificial Substrate (FAS) candidate sequence C
[7] = biological target: FLT3 Artificial Substrate (FAS) candidate sequence E
[8] = biological target: FLT3 Artificial Substrate (FAS) candidate sequence D

| Protein | phosphorylation, in vitro kinase assay [1] | phosphorylation, in vitro kinase assay [2] | phosphorylation, in vitro kinase assay [3] | phosphorylation, in vitro kinase assay [4] | phosphorylation, in vitro kinase assay [5] | phosphorylation, in vitro kinase assay [6] | phosphorylation, in vitro kinase assay [7] | phosphorylation, in vitro kinase assay, 60-minute incubation [2] | phosphorylation, in vitro kinase assay [8] |
| --- | --- | --- | --- | --- | --- | --- | --- | --- | --- |
| recombinant FLT3-D835Y mutant kinase (protein) HKYKKQFRYESQLQMVQVTGSSDNEYFYVDFREYEYDLKWEFPRENLEFGKVLGSGAFGKVMNATAYGISKTGVSIQVAVKMLKEKADSSEREALMSELKMMTQLGSHENIVNLLGACTLSGPIYLIFEYCCYGDLLNYLRSKREKFHRTWTEIFKEHNFSFYPTFQSHPNSSMPGSREVQIHPDSDQISGLHGNSFHSEDEIEYENQKRLEEEEDLNVLTFEDLLCFAYQVAKGMEFLEFKSCVHRDLAARNVLVTHGKVVKICDFGLARYIMSDSNYVVRGNARLPVKWMAPESLFEGIYTIKSDVWSYGILLWEIFSLGVNPYPGIPVDANFYKLIQNGFKMDQPFYATEEIYIIMQSCWAFDSRKRPSFPNLTSFLGCQLADAEEAMYQNVDGRVSECPHTYQNRRPFSREMDLGLLSPQAQVEDS | Sequences E, F and G were also phosphorylated by FLT3-D835Y but at lower levels than FL-Abltide | Candidate sequences A, B, C displayed higher levels of phosphorylation by FLT3-D835Y compared to FL-Abltide | Candidate sequences A, B, C displayed higher levels of phosphorylation by FLT3-D835Y compared to FL-Abltide | Sequences E, F and G were also phosphorylated by FLT3-D835Y but at lower levels than FL-Abltide | sequence H showed no phosphorylation | Candidate sequences A, B, C displayed higher levels of phosphorylation by FLT3-D835Y compared to FL-Abltide | Sequences E, F and G were also phosphorylated by FLT3-D835Y but at lower levels than FL-Abltide | – | – |
| recombinant wild type FLT3 kinase (FLT3-WT) (protein) HKYKKQFRYESQLQMVQVTGSSDNEYFYVDFREYEYDLKWEFPRENLEFGKVLGSGAFGKVMNATAYGISKTGVSIQVAVKMLKEKADSSEREALMSELKMMTQLGSHENIVNLLGACTLSGPIYLIFEYCCYGDLLNYLRSKREKFHRTWTEIFKEHNFSFYPTFQSHPNSSMPGSREVQIHPDSDQISGLHGNSFHSEDEIEYENQKRLEEEEDLNVLTFEDLLCFAYQVAKGMEFLEFKSCVHRDLAARNVLVTHGKVVKICDFGLARDIMSDSNYVVRGNARLPVKWMAPESLFEGIYTIKSDVWSYGILLWEIFSLGVNPYPGIPVDANFYKLIQNGFKMDQPFYATEEIYIIMQSCWAFDSRKRPSFPNLTSFLGCQLADAEEAMYQNVDGRVSECPHTYQNRRPFSREMDLGLLSPQAQVEDS | The remaining sequences did not get phosphorylated by FLT3-WT | – | The remaining sequences did not get phosphorylated by FLT3-WT | The remaining sequences did not get phosphorylated by FLT3-WT | The remaining sequences did not get phosphorylated by FLT3-WT | – | The remaining sequences did not get phosphorylated by FLT3-WT | Sequence A showed a similar level of phosphorylation compared to Abltide over a 60-minute incubation | The remaining sequences did not get phosphorylated by FLT3-WT |
